Data taken from the supplement of paper PMC7125110.
± gives the standard error. Variants at the floor of the assay were thinned out.

B1: glmS ribozyme (parent)
chain: AUAAAAGCGCCAGAACUACAGAAAUGUAGUUGACGAGGAGGAGGUUUAUCGAAUUUUCGGCGGAUGCCUCCAAA

Experiments:
Settings in all cases: with glucosamine-6-phosphate
[1] = variants of: B1; experiment: self-cleavage kobs at 40 uM GlcN6P; higher = faster cleavage; RNA array
Procedure, shortened: (§1)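 In situ transcription by E. coli RNA polymerase produced barcoded ribozyme variants on sequenced MiSeq chips, and a hybridised Cy3 probe tracked them at 37 °C. Glucosamine-6-phosphate was flowed in at 40 μM to 10 mM in HEPES/KCl/Mg(OAc)2 buffer. kcat and KM were taken from weighted Michaelis–Menten fits of kobs values from exponential decay fits.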

[2] = variants of: B1; experiment: self-cleavage kobs at 160 uM GlcN6P; higher = faster cleavage; RNA array
Procedure, shortened: as §1

[3] = variants of: B1; experiment: self-cleavage kobs at 10000 uM GlcN6P; higher = faster cleavage; RNA array
Procedure, shortened: as §1

[4] = variants of: B1; experiment: self-cleavage kobs at 640 uM GlcN6P; higher = faster cleavage; RNA array
Procedure, shortened: as §1

[5] = variants of: B1; experiment: self-cleavage kobs at 2500 uM GlcN6P; higher = faster cleavage; RNA array
Procedure, shortened: as §1

Variant	self-cleavage kobs at 40 uM GlcN6P [1] [s⁻¹]	self-cleavage kobs at 160 uM GlcN6P [2] [s⁻¹]	self-cleavage kobs at 10000 uM GlcN6P [3] [s⁻¹]	self-cleavage kobs at 640 uM GlcN6P [4] [s⁻¹]	self-cleavage kobs at 2500 uM GlcN6P [5] [s⁻¹]
AUAAACGCGCCAGAACUACAGAAAUGUAGUUGACGAGGAGGAGGUUUACCGAAUUUUCGGCGGAUGCCUCCAAA [A6C U49C]	< 1e-05	< 1e-05	< 1e-05		
AUAAAAGUGCCAGAACUACAGAAAUGUAGUGGACGAGGAGGAGGUUUAUCGAAUUUUCGGCUGAUGCCUCCAAA [C8U U31G G62U]	< 1e-05				
AUAAAAGCAUCAGUACUACAGAAAUGUAGUCGACGAGGACGAGGUUUAUCGAAUUUUCGGCGGAUGCCUACAAA [G9A C10U A14U U31C G40C C70A]	< 1e-05		< 1e-05		
AUAAAAGCGCCAGAACUACAGAAAUGUAGUUGACGAGGAGGAGGUUUAUGGAAUUUUCGGUGGGUGCCUCCAAA [C50G C61U A64G]	0.000244 ± 8.5e-05	8.89e-05 ± 3.2e-05	4.62e-05 ± 1.7e-05	0.000192 ± 8.3e-05	
AUAAAAGCGCCAGAACUACAGAAAUGUAGUUGACGAGUAGGACGUUCAUCGAUUAUUCCGCGGAUGCCUCCAAA [G38U G43C U47C A53U U55A G59C]	< 1e-05				
AUAAAAGCGCCAGAACUACAGAAAUGUAGUUUACGAGGAGGAGGUUUAUCGAAUUUUCGGCAGAUGCCUCCAAA [G32U G62A]	< 1e-05		< 1e-05	< 1e-05	< 1e-05
AUAAAAGCGCCAGAACUACAGAAAUGUAAUUGACGAGGAGGAGGUUUAUCGAAUCUUCGGCGGAUGCCUCCAAA [G29A U55C]	0.000113 ± 2.5e-05	9.66e-05 ± 2.7e-05	0.00384 ± 0.00092	0.00146 ± 0.00032	0.00194 ± 0.00056
AUAAAAGCGCCAGAACUACAGAAAUGUAGUUGACGAGGAGGAGGUUUAUCGCAUUUUCGGCGGGUGCCUCCAAA [A52C A64G]	< 1e-05	< 1e-05		< 1e-05	
AUAAAAGCGCCAGAGCUACAGAAAUGUAGUUGACGAGGAGGAGGUUUAUCGAAUUUUCGGCGGAUGUCUCCAAA [A15G C67U]	0.000329 ± 5.2e-05	0.000674 ± 0.00013	0.00828 ± 0.0017	0.00169 ± 0.00028	0.00538 ± 0.0014
AUAAAAGCGCCAGAACUACAGAAAUGUAGUUGACGAGGAGGAGGUUUAGCGAUUUAUCGGCGGAUGACUACAAA [U49G A53U U56A C67A C70A]	4.31e-05 ± 1.9e-05				0.000146 ± 2.4e-05
AUAAAAGCGCCAGAACUACAGAAAUGUAGUUGACGAGGAGGAGGUUUCUCGAAUUUUCGGCGGAUCCCUCCAAA [A48C G66C]	< 1e-05	< 1e-05	3.05e-05 ± 1.2e-05		
AUAAAAGCGCCAGAACUACAGAAAUGUAGUUGACGAGGAGGAGGUUUCUCGUAUUUUCGGCGGAUGCCUACAAA [A48C A52U C70A]	< 1e-05				
AUAAAAGCGCGAGAACUACAGAAAUGUAGUUGACGAGGAGCAGGUUUAUCGAAUUUUCGGCGGAUGCCUCCAAA [C11G G41C]	< 1e-05	< 1e-05		< 1e-05	< 1e-05
AUAAAAGCGCCAGAGCUACAGAAAUGUAGUUGACGACGAGGAGGUUUAUCGAAUUUUUGGCGGAUGCCUCCAAA [A15G G37C C58U]	< 1e-05				
AUAAAAGGGCCAGAACUACAGAAAUGUAGUUGACGAGGAGGAGGUUUAUCGAAUUUUCGGCGGAUGCCUCUAAA [C8G C71U]	< 1e-05	< 1e-05	< 1e-05	< 1e-05	< 1e-05
AUAAAAGCGCCAGAACUACAGAAAUGUAGUUGACGAGCAGGAGGUUUAUCGAAUAUUCGGCGUAUGCCUCCAAA [G38C U55A G63U]	< 1e-05			< 1e-05	< 1e-05
AUAAAAGCGCCAGAACUACAGAAAUGUAGUUGACGAGGAGGAGGUUUAUCGAAGUUUCGGCGGAUGUCUCCAAA [U54G C67U]	0.000313 ± 5.9e-05	0.000612 ± 0.00014		0.00333 ± 0.00057	0.00208 ± 0.00059
AUAAAAGCGCCAGAACUACAGAAAUGUAGUUGAUGAGGAGGAGGUUUAUCGAAUUUUCGGCGGAAGCCUCCAAA [C34U U65A]	< 1e-05	< 1e-05	< 1e-05	< 1e-05	
AUAAAAGCGCCAGAAUUACAGAAAUGUAGUUGACGAGGAGGAGGUUCAUCGAAUUUUCGGCGGAUGCCUCCAAA [C16U U47C]	7.47e-05 ± 1.5e-05		0.00228 ± 0.00034		0.00165 ± 0.00046
AUAAAAGCGCCAGAACUACAGAAAUGUAGUUGACGAGAAGGAGGUUUAUCGUAUUUUCGGCGGAUGCCUCUAAA [G38A A52U C71U]	< 1e-05		< 1e-05		
AUAAAAGCGCCAGAACUACAGAAAUGUAGUCCACAAGGAGGAGGUUUAUCGAAUUUUCUGCGGAUUCCUCUAAA [U31C G32C G35A G59U G66U C71U]	< 1e-05		< 1e-05		< 1e-05
AUAAAAGCGCCAGCACUACAGAAAUGUAGUUGAAGAGGAGGAGGUUUAUCGAAUUUUCGGCGGAUGUCUCCAAA [A14C C34A C67U]	< 1e-05		< 1e-05		< 1e-05
AUAAAGGCGCCAGAACUACAGAAAUGUAGUUGACAAGGAGGAGGUUUAUCGAAUUUUCGGCGGAUGUCACCAAA [A6G G35A C67U U69A]	< 1e-05	< 1e-05	< 1e-05	< 1e-05	< 1e-05
AUAAAAGGGCCAGAACUACAGAAAUGUAGUUCACGAGGAGGAGGUUUAUCGAAUUUUCGGCUGAUGCCUCCAAA [C8G G32C G62U]	< 1e-05		< 1e-05		
AUAAAAGCGCCAGCACUACAGAAAUGUAGUUGACGAGCAGGAGAUUUAUCGAAUUUUCGGCGUAUGCCUGCAAA [A14C G38C G44A G63U C70G]	< 1e-05				
